{
  "source": "patent US20130196320A1",
  "about": "“METHOD FOR IMPROVING CLEAVAGE OF DNA BY ENDONUCLEASE SENSITIVE TO METHYLATION” (CELLECTIS, priority 2010, published 2013)",
  "key": {"[1]": {"tested_on": "ADCY9 endogenous recognition site in 293H cells", "assay": "Meganuclease-induced mutagenesis assay at ADCY9 recognition site", "format": "cell-based, human", "protocol": "The human 293H cells (ATCC) were plated at a density of 1.2×10^6 cells per 10 cm dish in complete medium (DMEM supplemented with 2 mM L-glutamine, penicillin (100 IU/ml), streptomycin (100 μg/ml), amphotericin B (Fongizone: 0.25 μg/ml, Invitrogen-Life Science) and 10% FBS). The cells were pre-treated with 5-aza-deoxycytidine at 0.2 μM or 1 μM, 48 hours before transfection and the treatment was maintained 48 hours post-transfection. The medium was changed every day. The cells were transfected with 5 μg of DNA plasmids encoding meganuclease using Lipofectamine 2000 transfection reagent (Invitrogen) according to the manufacturer's protocol.\nThe efficiency of the meganuclease to promote mutagenesis at its endogenous recognition site was evaluated by sequencing the DNA surrounding the meganuclease cleavage site.\nTwo days post-transfection, genomic DNA was extracted. 200 ng of genomic DNA were used to amplify (PCR amplification) the endogenous locus surrounding the meganuclease cleavage site. PCR amplification is performed to obtain a fragment flanked by specific adaptor sequences [adaptor A: 5′-[…]-NNNN-3′ (SEQ ID NO: 46) and adaptor B, 5′-[…]-3′ (SEQ ID NO: 47)] provided by the company offering sequencing service (GATC Biotech AG, Germany) on the 454 sequencing system (454 Life Sciences). The primers sequences used for PCR amplification were: ADCY9_F3: 5′-[…]-NNNN-[…]-3′ (SEQ ID NO: 48) and ADCY9_R3: 5′-[…]-[…]-3′ (SEQ ID NO: 49). Sequences specific to the locus are underlined. The sequence NNNN in primer F1 is a Barcode sequence (Tag) needed to link the sequence with a PCR product. The percentage of PCR fragments carrying insertion or deletion at the meganuclease cleavage site is related to the mutagenesis induced by the meganuclease through NHEJ pathway in a cell population, and therefore correlates with the meganuclease activity at its endogenous recognition site. 5000 to 10000 sequences were analyzed per conditions."}, "[2]": {"tested_on": "ADCY9 endogenous locus in 293H cells", "assay": "Meganuclease-induced gene targeting assay, ADCY9 locus", "format": "cell-based, human", "settings": "for targeted events, % of the transfected cells: ADCY9 meganuclease + repair matrix, n=2", "protocol": "FIG. 14: ADCY9 meganuclease efficiency is impaired by DNA methylation in vivo. 293H cells were co-transfected with 5 μg of […] meganuclease expressing vector or empty vector and 2 μg of DNA repair matrix vector in presence or absence of DNA methylation inhibitor (5-aza-2′deoxycytidine). 480 individual cellular clones were analyzed in each condition for the presence of targeted events using specific PCR amplification.\nCell culture as well as general transfection conditions were described in Example 4. For this assay, 293H cells were co-transfected with 5 μg of ADCY9 meganuclease expressing vector and 2 μg of DNA repair matrix. The DNA repair matrix consists of a left and right arms corresponding to isogenic sequences of 1 kb located on both sides of the meganuclease recognition site. These two homology arms are separated by a heterologous fragment of 29 bp (sequence: […], SEQ ID NO: 64). Two days post-transfection, cells were replated in 10 cm dish. Two weeks later, individual clones were picked and subsequently amplified in 96 wells plate for 3 days. 480 individual cellular clones were then analyzed per condition. DNA extraction was performed with the ZR-96 genomic DNA kit (Zymo research) according to the supplier's protocol. The detection of targeted DNA matrix integrations was performed by specific PCR amplification using the primers ADCY9_F4: 5′-[…]-3′ (specific to the 29 bp of heterologous sequence) (SEQ ID NO: 50) and ADCY9_R4: 5′-[…]-3′ (specific to a genomic sequence located outside of the homology arm) (SEQ ID NO: 51)."}, "[3]": {"biological_target": "random target (stretch of 12 GA repeats)", "assay": "In vitro binding assay with random target", "protocol": "Fluorescein labeled C1234 oligonucleotides were synthesized and HPLC-purified by Eurogentec. To prepare C 1234 duplex corresponding to I-Cre I double strand DNA wild type target, C1234 forward (SEQ ID NO: 31, “a” strand below) labeled with Fluorescein on its 5′ end was mixed with 1 equivalent of C1234_reverse (SEQ ID NO: 32, “b” strand below) in 100 mM Tris-HCl, 50 mM EDTA, 150 mM NaCl, pH8. The mixture was heated to 95° C. for 2 min and then cooled down to 25° C. over 1 hour. C1234 duplex was eventually purified by anion exchange chromatography using a miniQ PE column (GE healthcare) pre-equilibrated with buffer A (20 mM Tris-HCl, pH7.4). Single stranded oligonucleotides and other contaminants were first discarded using a 0 to 360 mM NaCl step gradient and elution of pure C1234 duplex was performed with a 360-1000 mM NaCl linear gradient (5 column volumes). C 1234 duplex and fluorescein final concentrations were assessed by spectrophotometry using their respective extinction coefficients ε260nm=62900 M^−1 cm^−1 and ε495nm=83000 M^−1 cm^−1. As expected, a ratio [C1234 duplex]/[fluorescein]˜1 was obtained. […] After 30 minutes incubation, the fluorescence anisotropy of the mixture was recorded with a Pherastar Plus (BMG Labtech) operating in fluorescence polarization end point mode with excitation and emission wavelengths set to 495 and 520 nm respectively. Apparent dissociation constants were determined by fitting raw data by an hyperbolic function (Ax=(A∞*[Meganuclease])/(Kd+[Meganuclease]) with Ax, the fluorescence anisotropy value obtained at a given meganuclease concentration, A∞, the fluorescence anisotropy value obtained at saturating concentration of meganuclease and Kd the dissociation constant of the equilibrium studied)."}, "[4]": {"tested_on": "random target (stretch of 12 GA repeats)", "assay": "In vitro single turn over cleavage assay with random target", "format": "biochemical"}},
  "data": [
    {"molecule": "Nc1ncn([C@H]2C[C@H](O)[C@@H](CO)O2)c(=O)n1", "note": "[5-aza-2′deoxycytidine, reference compound]", "values": [
      {"measurement": "mutagenesis, PCR fragments carrying a mutation", "setting": "[1]; Empty vector, 0.2 μM 5-aza-2′-deoxycytidine", "value": 0.03, "unit": "%"},
      {"measurement": "mutagenesis, PCR fragments carrying a mutation", "setting": "[1]; Empty vector, 1 μM 5-aza-2′-deoxycytidine", "value": 0.03, "unit": "%"},
      {"measurement": "targeted events", "setting": "[2]; absence of meganuclease, with 5-aza-2′deoxycytidine treatment", "value": "no targeted events could be detected"}
    ]},
    {"molecule": "I-CreI: wild-type I-CreI meganuclease (… homing endonuclease), SEQ ID NO: 1, recombinant Cterm His-tag (protein, listed as Chlamydomonas reinhardtii, C-terminal His-tag) MNTKYNKEFLLYLAGFVDGDGSIIAQIKPNQSYKFKHQLSLTFQVTQKTQRRWFLDKLVDEIGVGYVRDRGSVSDYILSEIKPLHNFLTQLQPFLKLKQKQANLVLKIIEQLPSAKESPDKFLEVCTWVDQIAALNDSKTRKTTSETVRAVLDSLSEKKKSSP", "values": [
      {"measurement": "Kd", "setting": "[3]", "value": "> 1000", "unit": "nM"},
      {"measurement": "kcat", "setting": "[4]", "value": "<1.7e-06", "unit": "s⁻¹"}
    ]},
    {"molecule": "ADCY9: engineered meganuclease (SEQ ID NO: 3) designed to cleave adenylate cyclase 9 gene (protein) MANTKYNEEFLLYLAGFVDGDGSIIAQIKPNQSYKFKHQLSLTFRVTQKTQRRWFLDKLVDEIGVGYVRDSGSVSNYDLSEIKPLHNFLTQLQPFLELKQKQANLVLKIIEQLPSAKESPDKFLEVCTWVDQVAALNDSKTRKTTSETVRAVLDSLSEKKKSSPAAGGSDKYNQALSKYNQALSKYNQALSGGGGSNKKFLLYLAGFVDSDGSIIAQIKPDQSYKFKHQLGLTFQVTQKTQRRWFLDKLVDRIGVGYVRDRGSVSDYILSEIKPLHNFLTQLQPFLKLKQKQANLVLKIIEQLPSAKESPDKFLEVCTWVDQVAALNDSKTRKTTSETVRAVLDSLSEKKKSSP", "values": [
      {"measurement": "Kd", "setting": "[3]", "value": "> 1000", "unit": "nM"},
      {"measurement": "kcat", "setting": "[4]", "value": "<1.7e-06", "unit": "s⁻¹"},
      {"measurement": "mutagenesis, PCR fragments carrying a mutation", "setting": "[1]; ADCY9 meganuclease, 0 μM 5-aza-2′-deoxycytidine", "value": "0.16% ± 0.06"},
      {"measurement": "mutagenesis, PCR fragments carrying a mutation", "setting": "[1]; ADCY9 meganuclease, 0 μM 5-aza-2′-deoxycytidine, listed as ADCY9 meganuclease", "value": "0.16%±0.06"},
      {"measurement": "mutagenesis, PCR fragments carrying a mutation", "setting": "[1]; ADCY9 meganuclease, 0.2 μM 5-aza-2′-deoxycytidine", "value": "0.48% ± 0.01"},
      {"measurement": "mutagenesis, PCR fragments carrying a mutation", "setting": "[1]; ADCY9 meganuclease, 1 μM 5-aza-2′-deoxycytidine", "value": 0.36, "unit": "%"},
      {"measurement": "mutations", "setting": "[1]; ADCY9 meganuclease, samples treated with 5-aza-2′deoxycytidine, n=2", "value": "up to 0.48%±0.01"},
      {"measurement": "targeted events, % of the transfected cells", "setting": "[2]; 5-aza-2′deoxycytidine (0.2 μM)", "value": "3.37%±0.66"},
      {"measurement": "targeted events, % of the transfected cells", "setting": "[2]; absence of 5-aza-2′deoxycytidine", "value": "0.70%±0.14"},
      {"measurement": "increase of targeted event frequency", "setting": "[2]; with 5-aza-2′deoxycytidine (0.2 μM) vs without", "value": 4.8, "unit": "fold"}
    ]},
    {"molecule": "XPC4: engineered meganuclease (SEQ ID NO: 2) designed to cleave xeroderma pigmentosum group C gene (XPC) (protein) MANTKYNEEFLLYLAGFVDGDGSIIAQIKPNQSHKFKHALQLTFKVTQKTQRRWFLDKLVDEIGVGYVQDSGSVSNYILSEIKPLHNFLTQLQPFLELKQKQANLALKIIEQLPSAKESPDKFLEVCTWVDQVAALNDSKTRKTTSETVRAVLDSLSEKKKSSPAAGGSDKYNQALSKYNQALSKYNQALSGGGGSNKKFLLYLAGFVDSDGSIIAQIKPNQSHKFKHQLSLAFQVTQKTQRRWFLDKLVDRIGVGYVRDRGSVSDYILSKIKPLHNFLTQLQPFLKLKQKQANLVLKIIEQLPSAKESPDKFLEVCTWVDQVAALNDSKTRKTTSETVRAVLDSLSEKKKSSP", "values": [
      {"measurement": "Kd", "setting": "[3]", "value": "> 1000", "unit": "nM"},
      {"measurement": "kcat", "setting": "[4]", "value": "<1.7e-06", "unit": "s⁻¹"}
    ]}
  ]
}
